Consider seven sequences from the supplement of paper PMC5998384.

The test system of data set [1] is HeLa Kyoto. The experiment in a line: solubility in G1/S (NP-40 vs SDS abundance) (log2 ratio); higher = more soluble. The note with it: cell cycle stage: G1/S.
Data set [2] relates to HeLa Kyoto. The experiment in a line: melting temperature (median over replicates), in situ; higher = more thermally stable.
The subject of data set [3] is HeLa Kyoto. Description: solubility change mitosis vs G1/S (difference of NP-40 vs SDS log2 ratios) (log2 ratio difference); higher = more soluble in mitosis.
The test system of data set [4] is HeLa Kyoto. The experiment in a line: thermal stability score vs G1/S (z-score of summed log2 fold changes over temperatures); higher = more thermally stable than in G1/S.
The mark [5] stands for this setting: cell cycle stage: early G1 (4.5 h after nocodazole release).
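Wherever melting temperature (median over replicates), in situ is given: HeLa Kyoto cells synchronized by double thymidine or nocodazole block, proteins quantified by TMT10plex mass spectrometry, three independent biological replicates.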
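Wherever solubility change mitosis vs G1/S (difference of NP-40 vs SDS log2 ratios) is given: synchronized HeLa Kyoto cells (double thymidine block for G1/S, nocodazole release for mitosis), protein amounts in NP-40 versus SDS lysates quantified by mass spectrometry, three biological replicates.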
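Wherever solubility in G1/S (NP-40 vs SDS abundance) is given: HeLa Kyoto cells arrested at G1/S by double thymidine block, proteins quantified by TMT10plex mass spectrometry in mild NP-40 versus SDS extracts, three biological replicates.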
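Wherever thermal stability score vs G1/S (z-score of summed log2 fold changes over temperatures) is given: synchronized HeLa Kyoto cells, proteins quantified by TMT10plex mass spectrometry, three biological replicates, mitosis taken 0.5 h after nocodazole release, G1/S directly after double thymidine block.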

Consider “MWRVCARRAQNVAPWAGLEARWTALQEVPGTPRVTSRSGPAPARRNSVTTGYGGVRALCGWTPSSGATPRNRLLLQLLGSPGRRYYSLPPHQKVPLPSLSPTMQAGTIARWEKKEGDKINEGDLIAEVETDKATVGFESLEECYMAKILVAEGTRDVPIGAIICITVGKPEDIEAFKNYTLDSSAAPTPQAAPAPTPAATASPPTPSAQAPGSSYPPHMQVLLPALSPTMTMGTVQRWEKKVGEKLSEGDLLAEIETDKATIGFEVQEEGYLAKILVPEGTRDVPLGTPLCIIVEKEADISAFADYRPTEVTDLKPQVPPPTPPPVAAVPPTPQPLAPTPSAPCPATPAGPKGRVFVSPLAKKLAVEKGIDLTQVKGTGPDGRITKKDIDSFVPSKVAPAPAAVVPPTGPGMAPVPTGVFTDIPISNIRRVIAQRLMQSKQTIPHYYLSIDVNMGEVLLVRKELNKILEGRSKISVNDFIIKASALACLKVPEANSSWMDTVIRQNHVVDVSVAVSTPAGLITPIVFNAHIKGVETIANDVVSLATKAREGKLQPHEFQGGTFTISNLGMFGIKNFSAIINPPQACILAIGASEDKLVPADNEKGFDVASMMSVTLSCDHRVVDGAVGAQWLAEFRKYLEKPITMLL [DLAT]”, for which the “solubility in G1/S (log2)” value with HeLa Kyoto [1] worked out at 0.263. The melting temperature was 54 °C in the data set with HeLa Kyoto [2] (cell cycle stage: G1/S) and 52.3 °C with HeLa Kyoto [2] (cell cycle stage: mitosis). The “solubility change mitosis (log2)” value in the data set with HeLa Kyoto [3] was -0.12. The thermal stability score with HeLa Kyoto [4] (setting [5]) is -1.61; in the data set on HeLa Kyoto [4] (cell cycle stage: mitosis), -3.92.

As for “MATSATSPHAPGFPAEGRCGYYVEKKKRFCRMVVAAGKRFCGEHAGAAEEEDARKRILCPLDPKHTVYEDQLAKHLKKCNSREKPKPDFYIQDINAGLRDETEIPEQLVPISSLSEEQLEKLIKKLRKASEGLNSTLKDHIMSHPALHDALNDPKNGDSATKHLKQQASILGNIENLKLLGPRRCFVEFGAGKGKLSHWVDIALKDAEKVHFILVEKVTTRFKVDGKHRKKNSVFERLQIDIQHLCLNKIPVLREEKLPVVGIGKHLCGMATDLALRCLVETYAASFEERNEEPLAKRIKNDKTEKEIYTLAKEGNEKNVPEKWNPVAGIVIALCCHHRCDWRHYVGKEYFRALGLGAVEFHYFQRMSSWATCGMRKTSLETSNSTTKRQDNQNDDSEEHDDGGYRITDDGADCLPGLLSVEEKKKIGHLCKLLIDQGRIQYLQQKGFSPALQYYTDPLVSLENVLLTALPNHSSSPETTA [TRMT13]”, the “solubility in G1/S (log2)” value in the data set with HeLa Kyoto [1] came to 0.027. In addition, the melting temperature in the data set with HeLa Kyoto [2] (cell cycle stage: mitosis) was determined as 50.3 °C. In the data set with HeLa Kyoto [3], the “solubility change mitosis (log2)” value is -0.0657. In addition, the thermal stability score with HeLa Kyoto [4] (setting [5]) turned out to be 1.03; in the data set on HeLa Kyoto [4] (cell cycle stage: mitosis) it was 0.684.

In the case of “MEGGPAVCCQDPRAELVERVAAIDVTHLEEADGGPEPTRNGVDPPPRARAASVIPGSTSRLLPARPSLSARKLSLQERPAGSYLEAQAGPYATGPASHISPRAWRRPTIESHHVAISDAEDCVQLNQYKLQSEIGKGAYGVVRLAYNESEDRHYAMKVLSKKKLLKQYGFPRRPPPRGSQAAQGGPAKQLLPLERVYQEIAILKKLDHVNVVKLIEVLDDPAEDNLYLVFDLLRKGPVMEVPCDKPFSEEQARLYLRDVILGLEYLHCQKIVHRDIKPSNLLLGDDGHVKIADFGVSNQFEGNDAQLSSTAGTPAFMAPEAISDSGQSFSGKALDVWATGVTLYCFVYGKCPFIDDFILALHRKIKNEPVVFPEEPEISEELKDLILKMLDKNPETRIGVPDIKLHPWVTKNGEEPLPSEEEHCSVVEVTEEEVKNSVRLIPSWTTVILVKSMLRKRSFGNPFEPQARREERSMSAPGNLLVKEGFGEGGKSPELPGVQEDEAAS [CAMKK1]”, the “solubility in G1/S (log2)” value in the data set with HeLa Kyoto [1] was 0.186. Also, the melting temperature in the data set on HeLa Kyoto [2] (cell cycle stage: mitosis) came to 50.4 °C. The “solubility change mitosis (log2)” value in the data set with HeLa Kyoto [3] was 0.147. Further, the thermal stability score was -0.286 in the data set with HeLa Kyoto [4] (setting [5]) and 0.129 with HeLa Kyoto [4] (cell cycle stage: mitosis).

With “MLFIFNFLFSPLPTPALICILTFGAAIFLWLITRPQPVLPLLDLNNQSVGIEGGARKGVSQKNNDLTSCCFSDAKTMYEVFQRGLAVSDNGPCLGYRKPNQPYRWLSYKQVSDRAEYLGSCLLHKGYKSSPDQFVGIFAQNRPEWIISELACYTYSMVAVPLYDTLGPEAIVHIVNKADIAMVICDTPQKALVLIGNVEKGFTPSLKVIILMDPFDDDLKQRGEKSGIEILSLYDAENLGKEHFRKPVPPSPEDLSVICFTSGTTGDPKGAMITHQNIVSNAAAFLKCVEHAYEPTPDDVAISYLPLAHMFERIVQAVVYSCGARVGFFQGDIRLLADDMKTLKPTLFPAVPRLLNRIYDKVQNEAKTPLKKFLLKLAVSSKFKELQKGIIRHDSFWDKLIFAKIQDSLGGRVRVIVTGAAPMSTSVMTFFRAAMGCQVYEAYGQTECTGGCTFTLPGDWTSGHVGVPLACNYVKLEDVADMNYFTVNNEGEVCIKGTNVFKGYLKDPEKTQEALDSDGWLHTGDIGRWLPNGTLKIIDRKKNIFKLAQGEYIAPEKIENIYNRSQPVLQIFVHGESLRSSLVGVVVPDTDVLPSFAAKLGVKGSFEELCQNQVVREAILEDLQKIGKESGLKTFEQVKAIFLHPEPFSIENGLLTPTLKAKRGELSKYFRTQIDSLYEHIQD [ACSL5]”, in the data set on HeLa Kyoto [1], the “solubility in G1/S (log2)” value was -0.0641. Further, the results for the melting temperature with HeLa Kyoto [2] (cell cycle stage: G1/S) and in the data set on HeLa Kyoto [2] (cell cycle stage: mitosis) were 51.8 °C and 51.1 °C, respectively. Besides, the “solubility change mitosis (log2)” value in the data set on HeLa Kyoto [3] is -0.0802. In addition, the thermal stability score is -0.104 with HeLa Kyoto [4] (setting [5]) and -0.53 with HeLa Kyoto [4] (cell cycle stage: mitosis).

As to “MTSLMPGAGLLPIPTPNPLTTLGVSLSSLGAIPAAALDPNIATLGEIPQPPLMGNVDPSKIDEIRRTVYVGNLNSQTTTADQLLEFFKQVGEVKFVRMAGDETQPTRFAFVEFADQNSVPRALAFNGVMFGDRPLKINHSNNAIVKPPEMTPQAAAKELEEVMKRVREAQSFISAAIEPESGKSNERKGGRSRSHTRSKSRSSSKSHSRRKRSQSKHRSRSHNRSRSRQKDRRRSKSPHKKRSKSRERRKSRSRSHSRDKRKDTREKIKEKERVKEKDREKEREREKEREKEKERGKNKDRDKEREKDREKDKEKDREREREKEHEKDRDKEKEKEQDKEKEREKDRSKEIDEKRKKDKKSRTPPRSYNASRRSRSSSRERRRRRSRSSSRSPRTSKTIKRKSSRSPSPRSRNKKDKKREKERDHISERRERERSTSMRKSSNDRDGKEKLEKNSTSLKEKEHNKEPDSSVSKEVDDKDAPRTEENKIQHNGNCQLNEENLSTKTEAV [SREK1]”, the “solubility in G1/S (log2)” value in the data set with HeLa Kyoto [1] was -0.849. The melting temperature came to 48.9 °C in the data set with HeLa Kyoto [2] (cell cycle stage: G1/S) and 50.6 °C in the data set on HeLa Kyoto [2] (cell cycle stage: mitosis). For the same sequence, the “solubility change mitosis (log2)” value in the data set with HeLa Kyoto [3] was 0.262. The thermal stability score in the data set with HeLa Kyoto [4] (setting [5]) was found to be 1.86; with HeLa Kyoto [4] (cell cycle stage: mitosis) it was 4.67.

As to “MSLKSERRGIHVDQSDLLCKKGCGYYGNPAWQGFCSKCWREEYHKARQKQIQEDWELAERLQREEEEAFASSQSSQGAQSLTFSKFEEKKTNEKTRKVTTVKKFFSASSRVGSKKEIQEAKAPSPSINRQTSIETDRVSKEFIEFLKTFHKTGQEIYKQTKLFLEGMHYKRDLSIEEQSECAQDFYHNVAERMQTRGKVPPERVEKIMDQIEKYIMTRLYKYVFCPETTDDEKKDLAIQKRIRALRWVTPQMLCVPVNEDIPEVSDMVVKAITDIIEMDSKRVPRDKLACITKCSKHIFNAIKITKNEPASADDFLPTLIYIVLKGNPPRLQSNIQYITRFCNPSRLMTGEDGYYFTNLCCAVAFIEKLDAQSLNLSQEDFDRYMSGQTSPRKQEAESWSPDACLGVKQMYKNLDLLSQLNERQERIMNEAKKLEKDLIDWTDGIAREVQDIVEKYPLEIKPPNQPLAAIDSENVENDKLPPPLQPQVYAG [RABGEF1]”, in the data set with HeLa Kyoto [1], the “solubility in G1/S (log2)” value stood at 0.143. Also, the melting temperature in the data set with HeLa Kyoto [2] (cell cycle stage: G1/S) was 52.3 °C; in the data set with HeLa Kyoto [2] (cell cycle stage: mitosis), 50.3 °C. Also, the “solubility change mitosis (log2)” value with HeLa Kyoto [3] was -0.0709. The thermal stability score with HeLa Kyoto [4] (setting [5]) was 0.899; in the data set with HeLa Kyoto [4] (cell cycle stage: mitosis), -2.37.

For “MGRLVAVGLLGIALALLGERLLALRNRLKASREVESVDLPHCHLIKGIEAGSEDIDILPNGLAFFSVGLKFPGLHSFAPDKPGGILMMDLKEEKPRARELRISRGFDLASFNPHGISTFIDNDDTVYLFVVNHPEFKNTVEIFKFEEAENSLLHLKTVKHELLPSVNDITAVGPAHFYATNDHYFSDPFLKYLETYLNLHWANVVYYSPNEVKVVAEGFDSANGINISPDDKYIYVADILAHEIHVLEKHTNMNLTQLKVLELDTLVDNLSIDPSSGDIWVGCHPNGQKLFVYDPNNPPSSEVLRIQNILSEKPTVTTVYANNGSVLQGSSVASVYDGKLLIGTLYHRALYCEL [PON2]”, in the data set with HeLa Kyoto [1], the “solubility in G1/S (log2)” value was found to be 0.315. The melting temperature in the data set with HeLa Kyoto [2] (cell cycle stage: G1/S) and in the data set with HeLa Kyoto [2] (cell cycle stage: mitosis) was 53.6 °C each time. The “solubility change mitosis (log2)” value in the data set on HeLa Kyoto [3] was -0.101. Moreover, the thermal stability score in the data set on HeLa Kyoto [4] (setting [5]) was 4.83; in the data set with HeLa Kyoto [4] (cell cycle stage: mitosis), 4.5.
